# Tests used:
# [1] = target: HIV-1 CA A14C/E45C/W184A/M185A (HIV-1 (NL4-3)); test: cross-linking
# [2] = target: HIV-1 CA A14C/E45C/W184A/M185A (HIV-1 (NL4-3)); test: SEC
substance,measurement,setting,value
HIV-1 CA A14C/E45C/W184A/M185A (natural protein),stoichiometry N,[1],6
same,stoichiometry N,[2],6
